The target in test [1] is Ad35K++ (recombinant adenovirus serotype 35 fiber knob protein with affinity-enhancing mutations) (adenovirus serotype 35). As to the kind of experiment: SDS-PAGE of unboiled sample; reduced 4-15% gradient gel, Laemmli sample buffer with beta-mercaptoethanol, sample not boiled, Coomassie Blue.
Test [2] shares this target. Description: SEC; Superdex 200 Increase 10/300 GL, 1x Tris-buffered saline, 1 mL/min; cGMP grade Ad35K++. Background: Size exclusion chromatography separates by hydrodynamic size, large species first.

As usually defined, the stoichiometry N is the number of molecules, sites or subunits per partner or assembly.

In the case of “Ad35K++ (recombinant adenovirus serotype 35 fiber knob protein with affinity-enhancing mutations) (domain or fragment)”, the stoichiometry N in test [1] and in test [2] was 3 each time.
